Measurements reported in PMC7145548.

Experiments:
hsRosR [1] = molecular target: T1, hsRosR (Halobacterium salinarum (Halobacterium …, UniProt Q9HSF4 1-116)); assay: fluorescence anisotropy
T1 sequence: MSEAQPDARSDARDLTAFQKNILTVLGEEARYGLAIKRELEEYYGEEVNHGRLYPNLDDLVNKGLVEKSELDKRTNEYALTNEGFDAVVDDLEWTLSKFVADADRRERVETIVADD

hsRosR [2] = molecular target: T1, hsRosR; assay: fluorescence anisotropy; remark: listed apart in the source
hsRosR [3] = molecular target: T1, hsRosR; assay: fluorescence anisotropy; remark: listed apart in the source
hsRosR [4] = molecular target: T1, hsRosR; assay: fluorescence anisotropy; remark: listed apart in the source
hsRosR [5] = molecular target: T1, hsRosR; assay: fluorescence anisotropy; remark: listed apart in the source
hsRosR [6] = molecular target: T1, hsRosR; assay: ITC
hsRosR [7] = molecular target: T1, hsRosR; assay: fluorescence anisotropy; remark: listed apart in the source
hsRosR [8] = molecular target: T1, hsRosR; assay: fluorescence anisotropy; remark: listed apart in the source
hsRosR [9] = molecular target: T1, hsRosR; assay: ITC; remark: listed apart in the source
hsRosR [10] = molecular target: T1, hsRosR; assay: X-ray crystallography
hsRosR [11] = molecular target: T1, hsRosR; assay: X-ray crystallography; remark: listed apart in the source
hsRosR [12] = molecular target: T1, hsRosR; assay: X-ray crystallography; remark: listed apart in the source

B1: GS1 (dsDNA)
DNA 1: TAATAGACAGGGAGATCGATGTCTGCTA
DNA 2: TAGCAGACATCGATCTCCCTGTCTATTA
- binding result (hsRosR [1]): no binding

B2: S1 (35 bp) (dsDNA)
DNA 1: GCGAGGTGTAAATTGTCTGACATGTTCTTATTGGG
DNA 2: CCCAATAAGAACATGTCAGACAATTTACACCTCGC
- Kd (hsRosR [1]): 49.3 ± 6.18 nM

B3: S2 (dsDNA)
DNA 1: GCGCTCATGTCAACCTTCTTACACTTCCTCTCCCG
DNA 2: CGGGAGAGGAAGTGTAAGAAGGTTGACATGAGCGC
- Kd (hsRosR [2]): 60.1 ± 18.8 nM

B4: S1 (25 bp) (dsDNA)
DNA 1: GTGTAAATTGTCTGACATGTTCTTA
DNA 2: TAAGAACATGTCAGACAATTTACAC
- Kd (hsRosR [3]): 25.9 ± 2.02 nM
- Kd (hsRosR [4]): 80.2 ± 10.2 nM
- Kd (hsRosR [5]): 78.3 ± 8.34 nM
- Kd (hsRosR [6]): 259 ± 9.75 nM
- Kd (hsRosR [7]): 169 ± 30.2 nM
- Kd (hsRosR [1]): 37.2 ± 2.36 nM
- Kd (hsRosR [8]): 24 ± 3.37 nM
- Kd (hsRosR [9]): 91 ± 3.25 nM

B5: S4 (35 bp) (dsDNA)
DNA 1: GCCCGAAGTGTAAACGCGTTGACATGTGGTGCTGG
DNA 2: CCAGCACCACATGTCAACGCGTTTACACTTCGGGC
- Kd (hsRosR [2]): 91.6 ± 13.2 nM

B6: S1 (28 bp) (dsDNA)
DNA 1: GCGAGGTGTAAATTGTCTGACATGTTCT
DNA 2: AGAACATGTCAGACAATTTACACCTCGC
- Kd (hsRosR [1]): 53.5 ± 6.54 nM

B7: S5 (35 bp) (dsDNA)
DNA 1: GCGAAGTGTCATCCCTCTTACATGACTTGTCTTGG
DNA 2: CCAAGACAAGTCATGTAAGAGGGATGACACTTCGC
- Kd (hsRosR [2]): 99.5 ± 10.6 nM

B8: GS2 (first) (dsDNA)
DNA 1: ATCGGGACAATCGCGTCTCTGTCGATCG
DNA 2: CGATCGACAGAGACGCGATTGTCCCGAT
- binding result (hsRosR [1]): no binding

B9: S3 (dsDNA)
DNA 1: GCACATGTAAGTCTATTGACATGTTCTTTCCCTCG
DNA 2: CGAGGGAAAGAACATGTCAATAGACTTACATGTGC
- Kd (hsRosR [2]): 68 ± 11.3 nM

B10: SG (28 bp) (dsDNA)
DNA 1: GCGACGTGTATTTCCCCTGACACTAGCG
DNA 2: CGCTAGTGTCAGGGGAAATACACGTCGC
- binding result (hsRosR [10]): binds

B11: S5 (28 bp) (dsDNA)
DNA 1: GCGAAGTGTCATCCCTCTTACATGACTT
DNA 2: AAGTCATGTAAGAGGGATGACACTTCGC
- binding result (hsRosR [11]): binds

B12: GS2 (second) (dsDNA)
DNA 1: TTGAATTTGTGGGGGCAGGGACAGCCCTGA
DNA 2: TCAGGGCTGTCCCTGCCCCCACAAATTCAA
- binding result (hsRosR [1]): no binding

B13: GS5 (dsDNA)
DNA 1: AGCGAGGACACTGCTGGCGGTGTCGCCGTC
DNA 2: GACGGCGACACCGCCAGCAGTGTCCTCGCT
- binding result (hsRosR [1]): no binding

B14: S4 (28 bp) (dsDNA)
DNA 1: CCGAAGTGTAAACGCGTTGACATGTGGT
DNA 2: ACCACATGTCAACGCGTTTACACTTCGG
- binding result (hsRosR [12]): binds
